Biological target: His-vimentin, purified recombinant, polymerized (UniProt P08670)
Experiment: co-sedimentation

Sequence of His-vimentin, purified recombinant, polymerized (P08670 whole entry): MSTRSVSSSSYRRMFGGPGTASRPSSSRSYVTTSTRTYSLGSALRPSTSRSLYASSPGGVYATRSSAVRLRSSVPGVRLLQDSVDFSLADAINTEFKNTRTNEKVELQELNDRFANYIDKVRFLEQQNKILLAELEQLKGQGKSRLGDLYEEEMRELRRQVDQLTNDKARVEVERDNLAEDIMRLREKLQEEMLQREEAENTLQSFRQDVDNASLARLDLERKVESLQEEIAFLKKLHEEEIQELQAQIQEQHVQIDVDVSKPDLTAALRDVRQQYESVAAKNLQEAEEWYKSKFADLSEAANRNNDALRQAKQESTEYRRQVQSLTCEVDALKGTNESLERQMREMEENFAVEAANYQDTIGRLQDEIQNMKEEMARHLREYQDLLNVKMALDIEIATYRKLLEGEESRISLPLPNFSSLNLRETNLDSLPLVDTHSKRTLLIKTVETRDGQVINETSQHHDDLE

percent of total APC cosedimented: 18.5%
Substance: adenomatous polyposis coli (APC), endogenous in rat primary astrocytes, P70478 1-2842

Reference: article PMC3563686
